Measurements: patent JP2004097211A (dated 2004)

B1: i41SL1−2抗体の重鎖 (other)
VH: QVQLQHSGAELVRPGSSVKVSCKALGYTSTDYEIHWVKQTPVRGLEWIGAIHPGSDVIVYNQKFKGTATLTADKSSSTAYMELRSLTSEDSAVYYCTREGGSVDYVWGQGTLVTVSA
modifications: cysteines reduced with b-mercaptoethanol and alkylated with iodoacetamide (positions not stated)
B2: HpU−20抗体のL鎖 (protein)
VL: DVLMTQTPLSLPISLGDQASISCRSSQSIVQSNGNTYLEWYVQKPGQSPKLLIYKVSNRFSGVPDRFSGSGSGTDFTFKISRVEAEDLGVYYCIQGSHVPLTFGAGTKLELKRA
modifications: cysteines reduced with b-mercaptoethanol and alkylated with iodoacetamide (positions not stated)
B3: i41SL1−2抗体の軽鎖 (other)
VL: DIVMTQTQLTLTINIGQPASISCKSSQSLLDSDGKTYLNWLFQRPGQSPKRLIYLVSKLDSGVPDRFTGSGSGTDFTLKISRVEAEDLGVYYCWQGTHFPLTFGAGTKLELRRA
modifications: cysteines reduced with b-mercaptoethanol and alkylated with iodoacetamide (positions not stated)

Columns and labels:
CDR1抗原ペプチド = molecular target: T1, CDR1抗原ペプチド; test: cell-based or functional assay
T1 peptide: RSSKSLLYSNGNTYLY

[1] = molecular target: ヘリコバクターピロリ菌のウレーアゼ (ヘリコバクターピロリ菌 (Helicobacter pylori)) (UniProt P14916); test: cell-based or functional assay

Binder | 回転数(kcat) (CDR1抗原ペプチド) | 触媒効率(kcat/Km) (CDR1抗原ペプチド) | タンパク質分解実験 (SDS-PAGE, 1 h): decrease of the β subunit band against the control [1] [%]
B1 | ~0.005 fold of trypsin (trypsin measured on another synthetic peptide) | ~0.1 fold of trypsin (trypsin measured on another synthetic peptide) | –
B2 | – | – | 26.7
B3 | ~0.005 fold of trypsin (trypsin measured on another synthetic peptide) | – | –
